The target of this assay is LIMD1 (UniProt Q9UGP4). Briefly: co-IP of Xpr-LIMD1 with EYFP-AGO2. The note with it: reference: wild type; sites S387.

Consider AGO2 (from UniProt Q9UKV8) S387A, for which the “binding against the reference” value is listed as “weaker”.

The record behind these values is article PMC5507773.
